Measurements published in patent US20150265516A1 (Merck KGaA, published 2015).
Starred links: 1 amine or outer side, 2 acyl side, 3 side chain; linkers in the order of their positions; H or OH if unused. Non-standard residues stand in square brackets, D forms with d. Primed or numbered codes have the meaning given here. No end group written: not given here. Nhdg = N-hexadecylglycine, CCCCCCCCCCCCCCCCN(CC(=O)[*:2])[*:1]; Aib′ = 3-aminoisobutyric acid (as defined by the filing); Ac6c = NC1(C(=O)O)CCCCC1; NMeA = CN[C@@H](C)C(=O)O; Ac5c = NC1(C(=O)O)CCCC1

B1: Cyclo-(Arg-Gly-Asp-Phe-Nhdg) (peptide)
peptide: cyclo(RGDF[Nhdg])
SMILES: CCCCCCCCCCCCCCCCN1CC(=O)N[C@@H](CCCNC(=N)N)C(=O)NCC(=O)N[C@@H](CC(=O)O)C(=O)N[C@@H](Cc2ccccc2)C1=O
notes: Phe at 4 is printed without D; residue 5 is glycine carrying an N-hexadecyl group
B2: Cyclo-(Arg-Ala-Asp-DPhe-Val) (peptide)
peptide: cyclo(RAD[dF]V)
SMILES: CC(C)[C@@H]1NC(=O)[C@@H](Cc2ccccc2)NC(=O)[C@H](CC(=O)O)NC(=O)[C@H](C)NC(=O)[C@H](CCCNC(=N)N)NC1=O
notes: also called cyclo(RADfV)
B3: Cyclo-(Arg-Gly-Asp-DPhe-(NMe)Ala) (peptide)
peptide: cyclo(RGD[dF][NMeA])
SMILES: C[C@H]1C(=O)N[C@@H](CCCNC(=N)N)C(=O)NCC(=O)N[C@@H](CC(=O)O)C(=O)N[C@H](Cc2ccccc2)C(=O)N1C
B4: Cyclo-(Arg-Gly-Asp-DPhe-Acha) (peptide)
peptide: cyclo(RGD[dF][Ac6c])
SMILES: N=C(N)NCCC[C@@H]1NC(=O)C2(CCCCC2)NC(=O)[C@@H](Cc2ccccc2)NC(=O)[C@H](CC(=O)O)NC(=O)CNC1=O
notes: X = non-natural residue Acha; also called CPPC 1; Cyclopeptide
B5: Gly-Arg-Gly-Asp-Ser-Pro-Lys-OH (peptide)
peptide: GRGDSPK-OH
notes: Linear peptide with free C-terminus; also called GRGDSPK peptide

Key:
[1] = molecular target: T1, purified human integrin αvβ3 from term placenta (human, UniProt P06756 31-1048; P05106 27-788); assay: receptor inhibition assay: coated placental αvβ3, competitor ligand biotinylated vitronectin
T1 construct: mature; also called human placental αvβ3; vitronectin receptor avβ3
Experimental: Method: 1 μg ml⁻¹ biotin-ligand is incubated with 1 μg ml⁻¹ coated receptor in the presence of serially diluted peptides. After 3 h at 30° C. bound ligand was measures by anti-biotin—alkaline phosphatase detection.

[2] = molecular target: T1, purified human integrin αvβ3 from term …; assay: solid-phase inhibition assay: immobilized placental αvβ3, competitor ligand vitronectin
[3] = molecular target: T2, recombinant human integrin αvβ3 (human, UniProt P06756 31-992; P05106 27-718); assay: ligand inhibition ELISA: immobilized recombinant human αvβ3, competitor ligand biotinylated human serum vitronectin
T2 construct: also called recombinant human αvβ3 integrin; avβ3

[4] = molecular target: T2, recombinant human integrin αvβ3; assay: isolated integrin binding assay: adsorbed recombinant human αvβ3, competitor ligand biotinylated human plasma vitronectin
Experimental: After 3 hours at 37° C., bound ligand is detected using alkaline-phosphatase labelled anti-biotin MAbs (Sigma, St. Louis, Mo.).

T2 sequence (P06756 31-992, chain 1 of 2): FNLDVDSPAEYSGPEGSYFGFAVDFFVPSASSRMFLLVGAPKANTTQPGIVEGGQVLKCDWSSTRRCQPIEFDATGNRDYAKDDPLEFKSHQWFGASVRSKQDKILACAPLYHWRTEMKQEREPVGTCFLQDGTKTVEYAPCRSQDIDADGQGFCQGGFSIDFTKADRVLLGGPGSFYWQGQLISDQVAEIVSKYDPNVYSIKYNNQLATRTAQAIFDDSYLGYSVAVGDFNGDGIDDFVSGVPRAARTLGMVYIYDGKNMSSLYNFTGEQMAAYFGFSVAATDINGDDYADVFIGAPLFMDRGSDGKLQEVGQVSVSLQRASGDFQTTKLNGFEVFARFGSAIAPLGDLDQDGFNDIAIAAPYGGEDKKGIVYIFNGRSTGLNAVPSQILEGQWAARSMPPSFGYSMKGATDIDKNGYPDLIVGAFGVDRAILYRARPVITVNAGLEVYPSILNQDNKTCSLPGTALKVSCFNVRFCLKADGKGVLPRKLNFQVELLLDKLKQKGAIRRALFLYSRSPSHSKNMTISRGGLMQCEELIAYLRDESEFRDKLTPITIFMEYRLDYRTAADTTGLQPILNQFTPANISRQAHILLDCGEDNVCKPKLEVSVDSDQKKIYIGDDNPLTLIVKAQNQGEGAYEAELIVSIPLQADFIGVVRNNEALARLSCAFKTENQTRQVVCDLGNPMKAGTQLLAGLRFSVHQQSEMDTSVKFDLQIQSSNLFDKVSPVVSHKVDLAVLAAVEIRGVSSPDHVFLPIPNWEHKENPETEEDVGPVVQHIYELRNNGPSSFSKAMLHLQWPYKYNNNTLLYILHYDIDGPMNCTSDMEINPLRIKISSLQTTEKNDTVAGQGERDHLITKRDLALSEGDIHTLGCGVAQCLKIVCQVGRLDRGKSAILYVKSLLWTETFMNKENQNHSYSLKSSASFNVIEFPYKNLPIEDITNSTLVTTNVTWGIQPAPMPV
T2 sequence (P05106 27-718, chain 2 of 2): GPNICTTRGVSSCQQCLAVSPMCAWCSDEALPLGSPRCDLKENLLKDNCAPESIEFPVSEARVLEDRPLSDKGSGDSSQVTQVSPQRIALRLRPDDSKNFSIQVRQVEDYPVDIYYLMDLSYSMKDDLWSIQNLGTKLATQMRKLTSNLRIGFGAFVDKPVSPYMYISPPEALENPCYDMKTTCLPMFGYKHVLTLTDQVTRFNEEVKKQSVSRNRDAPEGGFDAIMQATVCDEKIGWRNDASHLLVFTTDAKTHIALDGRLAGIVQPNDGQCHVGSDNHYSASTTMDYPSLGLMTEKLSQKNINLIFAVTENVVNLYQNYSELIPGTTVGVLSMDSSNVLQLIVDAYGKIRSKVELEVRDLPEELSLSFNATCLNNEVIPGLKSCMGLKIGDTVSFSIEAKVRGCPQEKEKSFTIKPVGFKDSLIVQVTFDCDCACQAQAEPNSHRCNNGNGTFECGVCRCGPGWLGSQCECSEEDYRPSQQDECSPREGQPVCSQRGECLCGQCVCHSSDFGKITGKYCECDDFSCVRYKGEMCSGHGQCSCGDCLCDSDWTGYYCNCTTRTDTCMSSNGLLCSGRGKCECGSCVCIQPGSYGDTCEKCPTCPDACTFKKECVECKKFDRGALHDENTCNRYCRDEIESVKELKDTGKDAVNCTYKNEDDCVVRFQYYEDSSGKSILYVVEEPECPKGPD
T1 sequence (P06756 31-1048, form in doubt, chain 1 of 2): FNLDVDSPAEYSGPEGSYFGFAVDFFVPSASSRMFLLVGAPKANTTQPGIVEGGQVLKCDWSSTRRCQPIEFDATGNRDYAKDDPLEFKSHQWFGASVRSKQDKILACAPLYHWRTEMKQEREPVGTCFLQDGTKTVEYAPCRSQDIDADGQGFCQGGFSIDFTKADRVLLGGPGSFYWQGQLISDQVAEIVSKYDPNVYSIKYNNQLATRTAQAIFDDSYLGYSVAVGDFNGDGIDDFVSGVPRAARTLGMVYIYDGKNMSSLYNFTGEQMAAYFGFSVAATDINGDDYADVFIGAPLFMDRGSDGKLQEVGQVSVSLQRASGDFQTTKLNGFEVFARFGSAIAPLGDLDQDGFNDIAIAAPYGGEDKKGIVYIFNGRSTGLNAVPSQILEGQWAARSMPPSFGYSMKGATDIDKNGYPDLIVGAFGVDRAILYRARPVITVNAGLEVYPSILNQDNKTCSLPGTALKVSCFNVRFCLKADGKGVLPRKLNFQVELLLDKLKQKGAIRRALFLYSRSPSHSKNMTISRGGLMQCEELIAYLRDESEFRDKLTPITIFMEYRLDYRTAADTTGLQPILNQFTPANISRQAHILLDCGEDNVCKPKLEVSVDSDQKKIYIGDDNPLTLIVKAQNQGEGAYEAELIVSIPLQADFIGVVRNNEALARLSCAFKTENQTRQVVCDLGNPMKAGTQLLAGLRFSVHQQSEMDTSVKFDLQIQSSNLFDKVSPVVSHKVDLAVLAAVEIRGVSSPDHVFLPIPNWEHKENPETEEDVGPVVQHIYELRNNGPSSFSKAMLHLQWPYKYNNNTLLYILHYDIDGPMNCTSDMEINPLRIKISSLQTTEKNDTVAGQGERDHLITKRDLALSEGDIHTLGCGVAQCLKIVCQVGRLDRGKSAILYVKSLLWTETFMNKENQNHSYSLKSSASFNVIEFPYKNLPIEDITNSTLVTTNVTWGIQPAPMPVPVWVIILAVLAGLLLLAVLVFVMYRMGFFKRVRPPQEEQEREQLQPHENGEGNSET
T1 sequence (P05106 27-788, form in doubt, chain 2 of 2): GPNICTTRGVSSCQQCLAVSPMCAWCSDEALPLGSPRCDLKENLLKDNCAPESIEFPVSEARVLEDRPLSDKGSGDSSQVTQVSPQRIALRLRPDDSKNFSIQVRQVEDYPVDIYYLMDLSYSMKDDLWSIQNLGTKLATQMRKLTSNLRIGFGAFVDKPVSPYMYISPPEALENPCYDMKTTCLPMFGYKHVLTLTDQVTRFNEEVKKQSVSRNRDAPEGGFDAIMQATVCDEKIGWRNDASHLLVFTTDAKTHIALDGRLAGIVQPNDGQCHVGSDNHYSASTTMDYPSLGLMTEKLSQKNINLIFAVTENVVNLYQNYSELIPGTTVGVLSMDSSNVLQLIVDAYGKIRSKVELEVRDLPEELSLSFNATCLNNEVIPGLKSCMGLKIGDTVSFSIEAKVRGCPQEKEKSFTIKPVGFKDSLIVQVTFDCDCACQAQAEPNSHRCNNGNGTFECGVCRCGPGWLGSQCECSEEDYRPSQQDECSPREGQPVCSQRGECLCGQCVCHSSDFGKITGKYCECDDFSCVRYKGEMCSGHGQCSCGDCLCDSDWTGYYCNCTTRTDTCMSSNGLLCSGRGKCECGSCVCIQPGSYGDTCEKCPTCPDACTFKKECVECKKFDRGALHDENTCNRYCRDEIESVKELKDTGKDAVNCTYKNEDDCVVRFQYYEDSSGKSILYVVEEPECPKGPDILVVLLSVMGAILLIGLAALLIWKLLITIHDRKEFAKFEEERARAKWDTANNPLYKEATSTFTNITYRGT

IC50 [1] [nM] | other results | Binder
400 |  | RGDFG (head-to-tail cyclic (homodetic)) [Cyclo(Arg-Gly-Asp-Phe-Gly)]
8 |  | B1
 | IC50 [2]: 4000 nM | B2
 | IC50 [3]: 24 nM | B3
20 |  | cyclo(RGD[dF][Aib′]) (X = non-natural residue Aib) [Cyclo-(Arg-Gly-Asp-DPhe-Aib)]
170 |  | cyclo(RGD[dF]X) (not fully specified (residue 5); printed as Cyclo-(Arg-Gly-Asp-DPhe-hPro), X = non-natural residue hPro) [Cyclo-(Arg-Gly-Asp-DPhe-hPro)]
2 | IC50 [4]: 2.1 nM | B4
9 |  | cyclo(RGD[dF][Ac5c]) (X = non-natural residue Acpa) [Cyclo-(Arg-Gly-Asp-DPhe-Acpa)]
 | IC50 [4]: 120 nM | B5
